Columns and labels:
[1] = biological target: biotinylated human angiotensin-converting enzyme 2 reference material ACE2-1 (human) (UniProt Q9BYF1); assay: SPR; ACE2-1 immobilised by its biotin on streptavidin on a biotin-coated Au chip (250-300 RU), blocked with 10 uM BSA; spike analyte in a twofold series of 12.5-200 nM at 50 uL/min, about 90 s association, 30-45 min dissociation; 10 mM HEPES pH 7-7.4, 150 mM NaCl, 3 mM EDTA, 0.05% Tween-20; 1:1 binding model; averages of two independent experiments
[2] = biological target: NRC SARS-CoV-2 (reference strain) spike protein reference material SMT1-1 (SARS-CoV-2 (reference strain, Wuhan-Hu-1)); assay: SEC-MALS; Waters BEH SEC 4.6 x 150 mm column (200 A for ACE2-1, 450 A for OMIC-1), DPBS with 0.02% Tween-20, pH 7.4, 0.4 mL/min; UV at 280 nm, MALS and RI detection; relative amounts of species from SEC-UV

Sequence of biotinylated human angiotensin-converting enzyme 2 reference material ACE2-1 (human) (Q9BYF1 20-614): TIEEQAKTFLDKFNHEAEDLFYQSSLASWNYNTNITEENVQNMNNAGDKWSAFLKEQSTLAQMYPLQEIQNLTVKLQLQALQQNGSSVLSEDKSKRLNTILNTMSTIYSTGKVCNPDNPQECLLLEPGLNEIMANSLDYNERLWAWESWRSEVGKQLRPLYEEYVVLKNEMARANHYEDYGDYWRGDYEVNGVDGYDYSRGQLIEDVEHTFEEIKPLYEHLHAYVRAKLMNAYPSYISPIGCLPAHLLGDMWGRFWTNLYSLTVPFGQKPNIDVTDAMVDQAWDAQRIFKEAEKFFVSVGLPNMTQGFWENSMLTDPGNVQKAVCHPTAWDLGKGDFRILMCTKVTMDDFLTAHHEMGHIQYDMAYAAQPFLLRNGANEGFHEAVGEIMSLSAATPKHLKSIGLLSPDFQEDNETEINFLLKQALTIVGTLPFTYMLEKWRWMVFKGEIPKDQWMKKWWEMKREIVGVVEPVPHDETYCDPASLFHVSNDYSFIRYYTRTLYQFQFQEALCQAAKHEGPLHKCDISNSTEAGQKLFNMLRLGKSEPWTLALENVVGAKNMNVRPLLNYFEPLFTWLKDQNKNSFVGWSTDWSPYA

NRC SARS-CoV-2 (reference strain) spike protein reference material SMT1-1
Kd [1]: 17.1 nM | koff [1]: 0.0018 s⁻¹ | kon [1]: 110000 M⁻¹ s⁻¹ | stoichiometry N [2]: 3
